# From article PMC3093366, “A Component of the Xanthomonadaceae Type IV Secretion System Combines a VirB7 Motif with a N0 Domain Found in Outer Membrane Transport Proteins” (PLoS Pathogens, 2011)
# T1: VirB7_(XAC2622_51–134) (Xanthomonas citri subsp. citri strain …, UniProt A0AAI7ZGD2 51-134, 15N isotope labelled in the NMR titration)
# T1 construct: also called VirB7_(XAC2622) globular domain; N0 domain; source: E. coli BL21(DE3)RP or BL21(DE3)Star, purified (Q-sepharose, Superdex 75)
# T1 sequence: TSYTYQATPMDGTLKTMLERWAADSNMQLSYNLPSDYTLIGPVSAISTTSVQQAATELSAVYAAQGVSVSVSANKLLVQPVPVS
# T2: VirB9_(XAC2620_34–255) (Xanthomonas citri subsp. citri strain …, UniProt A0AAI8ESY0 34-255)
# T2 construct: also called full length VirB9; full-length VirB9_(XAC2620) minus the first 33 residues
# T2 sequence: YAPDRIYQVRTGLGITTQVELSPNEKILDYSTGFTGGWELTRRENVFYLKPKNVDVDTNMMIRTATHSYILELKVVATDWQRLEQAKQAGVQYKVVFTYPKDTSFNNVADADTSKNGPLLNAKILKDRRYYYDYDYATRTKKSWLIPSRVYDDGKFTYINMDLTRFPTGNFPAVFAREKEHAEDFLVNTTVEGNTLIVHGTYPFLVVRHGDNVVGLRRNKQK
# B1: VirB7_(XAC2622_38–52) (peptide)
# peptide: NHFDEAPTEIPLYTS
# notes: also called unlabeled peptide encompassing residues 38–52 from the N-terminal region; source: synthetic peptide, bought: EZBiolab
# B2: VirB7_(XAC2622_24–139_His) (domain or fragment)
# chain: TKPAPDFGGRWKHVNHFDEAPTEIPLYTSYTYQATPMDGTLKTMLERWAADSNMQLSYNLPSDYTLIGPVSAISTTSVQQAATELSAVYAAQGVSVSVSANKLLVQPVPVSSGAKL
# notes: Form with the pET28a N-terminal His-tag not removed; used in the fluorescence titration; not shown: His-tag, N-terminal, kept
# Experiments:
# [1] = target: VirB7_(XAC2622_24–139) (Xanthomonas citri subsp. citri strain 306); experiment: NMR 15N relaxation (rotational correlation time); 15N T1 and T2 of 15N-VirB7_(XAC2622_24–139) at 800 µM, 40°C, 600 MHz
# VirB7_(XAC2622_51–134) = target: T1, VirB7_(XAC2622_51–134); experiment: NMR titration; 15N-labeled VirB7_(XAC2622_51–134) (200 µM) titrated with unlabeled VirB7_(XAC2622_38–52) peptide (0 to 740 µM); 15N-HSQC; conditions: both partners purified
# VirB9_(XAC2620_34–255) = target: T2, VirB9_(XAC2620_34–255); experiment: other fluorescence titration; intrinsic fluorescence; 0.1 µM aliquots of VirB7_(XAC2622_24–139_His) added to 1 µM VirB9_(XAC2620_34–255) up to 2.2 µM; 5 mM sodium acetate pH 5.0, 25°C, excitation 280 nm, emission 334–342 nm; conditions: both partners purified
molecule,measurement,setting,value
VirB7_(XAC2622_24–139) (from UniProt A0AAI7ZGD2 24-139) (domain or fragment),stoichiometry N,[1],2
B1,binding result,VirB7_(XAC2622_51–134),binds
B2,Kd,VirB9_(XAC2620_34–255),~40 nM
same,stoichiometry N,VirB9_(XAC2620_34–255),1 VirB7:VirB9
